Data set [1] concerns the molecule itself. Briefly: crystal structure; DNPH1^E104Q co-crystallised with hmdUMP at 4 °C; space group P2_(1), 1.78 Å; six chains in the asymmetric unit.
Data set [2] deals with the molecule itself. As to the kind of experiment: crystal structure; DNPH1^E55Q co-crystallised with hmdUMP; space group P2_(1)2_(1)2_(1), 1.65 Å; one homodimer in the asymmetric unit.

B1: DNPH1^E104Q (human 2'-deoxynucleoside 5'-monophosphate N-glycosidase, crystallisation construct aa 19-162, E104Q) (enzyme, UniProt O43598 19-162, looked up)
chain: GRPALYFCGSIRGGREDRTLYERIVSRLRRFGTVLTEHVAAAELGARGEEAAGGDRLIHEQDLEWLQQADVVVAEVTQPSLGVGYQLGRAVAFNKRILCLFRPQSGRVLSAMIRGAADGSRFQVWDYEEGEVEALLDRYFEADP
notes: also called RCL; source: E. coli BL21 Star (DE3), purified (Ni-NTA, TEV cleavage, HisTrap and Resource Q flow-through, size exclusion)
As to B1, in data set [1], the binding result was “binds”.

B2: DNPH1^E55Q (human 2'-deoxynucleoside 5'-monophosphate N-glycosidase, crystallisation construct aa 19-162, E55Q) (enzyme, UniProt O43598 19-162, looked up)
chain: GRPALYFCGSIRGGREDRTLYERIVSRLRRFGTVLTQHVAAAELGARGEEAAGGDRLIHEQDLEWLQQADVVVAEVTQPSLGVGYELGRAVAFNKRILCLFRPQSGRVLSAMIRGAADGSRFQVWDYEEGEVEALLDRYFEADP
modifications: deoxyribose monophosphate (dRP) covalently fused to E104
notes: 2'-deoxynucleoside 5'-monophosphate N-glycosidase (DNPH1, RCL), human, isoform 1, residues 19-162 (crystallisation construct) with the point mutation E55Q; Co-crystallised with hmdUMP; the crystal holds the trapped glycosyl-enzyme intermediate; also called RCL
For the protein B2, the binding result in data set [2] was “binds”.
